From patent US20090011979A1 (VIRON THERAPEUTICS, published 2009)

Columns and labels:
mouse IL-18 = target: T1, mouse IL-18 (mouse, UniProt P70380 36-192); assay: Biacore (row 'Human/mouse IL-18 Biacore')
T1 construct: also called murine IL-18
T1 sequence: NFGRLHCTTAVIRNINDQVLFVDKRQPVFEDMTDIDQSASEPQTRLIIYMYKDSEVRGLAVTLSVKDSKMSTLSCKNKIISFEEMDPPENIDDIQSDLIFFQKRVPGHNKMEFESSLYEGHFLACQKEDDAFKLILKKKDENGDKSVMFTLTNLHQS

human IL-18 [1] = target: T2, human IL-18 (human, UniProt Q14116 37-193); assay: immunoprecipitation (row 'Human IL-18 immunoprecipitation')
T2 construct: also called hIL-18
T2 sequence: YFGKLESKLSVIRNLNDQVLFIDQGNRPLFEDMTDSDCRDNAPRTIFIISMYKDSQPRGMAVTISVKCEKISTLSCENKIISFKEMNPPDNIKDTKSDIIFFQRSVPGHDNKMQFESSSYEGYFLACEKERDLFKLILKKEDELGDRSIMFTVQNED

human IL-18 [2] = target: T2, human IL-18; assay: Biacore (row 'Human/mouse IL-18 Biacore')

B1: tagged YCI (YMTV IL-18 bp with a C-terminal myc/his tag) (other)
chain: EKECDKHRSVNIQVPMKETSEVLLRCTGSSYFKHFSYVYWLVGESETVDQLQQNSGYGETSHPSKPHECGNLPSADLVLTNMTEKMRDTKLTCVLMDPDGHIDESLVLREVWDCFNKT
notes: also called 6xHis-tagged YCI; his-tagged version of the YCI
Q: Does B1 bind (mouse IL-18)?
A: Result: binds

Q: Does B1 bind (human IL-18 [1])?
A: Result: binds

B2: untagged YCI (YMTV IL-18 bp, YMTV Cytokine Inhibitor, without tag) (other)
chain: B1 chain
notes: also called IL-18 bp from YMTV; purified untagged YCI protein
Q: Does B2 bind (human IL-18 [2])?
A: Result: binds

Q: Does B2 bind (mouse IL-18)?
A: Result: binds
